Experimental data reported in publication PMC10610038, “New Insights into the Enhancement of Adventitious Root Formation Using N,N′-Bis(2,3-methylenedioxyphenyl)urea” (Plants, 2023).

Substrate: C/C(=C\CNc1ncnc2[nH]cnc12)CO
Experiment: purified protein
Conditions: FAD

B1: ZmCKX1 (cytokinin oxidase/dehydrogenase) (Zea mays) (protein)
chain: LAAGTPALGDDRGRPWPASLAALALDGKLRTDSNATAAASTDFGNITSALPAAVLYPSSTGDLVALLSAANSTPGWPYTIAFRGRGHSLMGQAFAPGGVVVNMASLGDAAAPPRINVSADGRYVDAGGEQVWIDVLRASLARGVAPRSWNDYLYLTVGGTLSNAGISGQAFRHGPQISNVLEMDVITGHGEMVTCSKQLNADLFDAVLGGLGQFGVITRARIAVEPAPARARWVRFVYTDFAAFSADQERLTAPRPGGGGASFGPMSYVEGSVFVNQSLATDLANTGFFTDADVARIVALAGERNATTVYSIEATLNYDNATAAAAAVDQELASVLGTLSYVEGFAFQRDVAYAAFLDRVHGEEVALNKLGLWRVPHPWLNMFVPRSRIADFDRGVFKGILQGTDIVGPLIVYPLNKSMWDDGMSAATPSEDVFYAVSLLFSSVAPNDLARLQEQNRRILRFCDLAGIQYKTYLARHTDRSDWVRHFGAAKWNRFVEMKNKYDPKRLLSPGQDIFN
Work on B1 yielded a Km of 6.8 ± 1.3 µM.
